{"source": "paper PMC6953019", "origin": "cited, not measured here", "target": "TβRII (Homo sapiens) (UniProt P37173)", "sequence (P37173 23-166)": "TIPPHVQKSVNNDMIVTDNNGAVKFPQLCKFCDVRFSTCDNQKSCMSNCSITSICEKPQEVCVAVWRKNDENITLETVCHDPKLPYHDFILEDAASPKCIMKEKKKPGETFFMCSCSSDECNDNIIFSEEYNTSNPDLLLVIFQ", "assay": "SPR", "data": [{"substance": "TGFβ2 (from UniProt P61812)", "values": [{"measurement": "Kd", "value": 5, "unit": "nM"}]}]}
